From the DeepSol protein solubility set come the findings set out here.

This data set can be described thus: soluble on expression in E. coli; label from the status in PepcDB or PDB records.
Regarding “MTKNTRFSPEVRQRAVRMVLESQGEYDSQWATICSIAPKIGCTPETLRVWGLRQHERDTGGGDGGLTTAERQRLKEPERENRELRRSNDILRQASAYFAKAEFDRLWKKLEHHHHHH”, the “soluble on expression in E. coli” value is “not soluble”.

With “MTKPMIQIALDQTNLTDAVAVASNVASYVDVIEVGTILAFAEGMKAVSTLRHNHPNHILVCDMKTTDGGAILSRMAFEAGADWITVSAAAHIATIAACKKVADELNGEIQIEIYGNWTMQDAKAWVDLGITQAIYHRSRDAELAGIGWTTDDLDKMRQLSALGIELSITGGIVPEDIYLFEGIKTKTFIAGRALAGAEGQQTAAALREQIDRFWP”, the “soluble on expression in E. coli” value was “not soluble”.

Consider “MTKPVSISKKPRKQHTPEFRNEALKLAERIGVAAAARELSLYESQLYAWRSKQQQQMSSSERESELAAENVRLKRQLAEQAEELSILQKAATYFAKRLK”, for which the “soluble on expression in E. coli” value is reported as “not soluble”.

“MTKSLFRQSFLFDSLDLDHPMVAQTVRTEQGVTLKLHQRGVLEVIPAQTDAATKNMVISCGIHGDETAPMELLDKWIDDIVSGFQPVAERCLFIMAHPQATVRHVRFIEQNLNRLFDDKPHTPSTELAIADNLKVLLRQFFANTDEHSRWHLDLHCAIRGSKHYSFAVSPKARHPVRSRSLMQFIEQAHIEAVMLSNAPSSTFSWYSAEHYAAQALTLELGQVARLGENLLDRLLAFDLAMRDLISRHKPEHLPRKSVMYRVSRTIVRLHDDFDFRFSDDVENFTAFMHGEVFGHDGDKPLMAKNEGEAIVFPNRKVAIGQRAALMVCKVNTRYEDDQLVYDLEHHHHHH”: the “soluble on expression in E. coli” value is listed as “soluble”.

Regarding “MTKVALFSGGDLTYFTRDFDYFVGIDKGSSFLLKNQLPLDLAIGDFDSVSAEEFKQIKAKAKKLVMAPAEKNDTDTELALKTIFDCFGRVEIIVFGAFGGRIDHMLSNIFLPSDPDLAPFMRCFKLRDEQNLVEFFPAGQHQIEQATDMVYISFMAANGAHLSIQDAKYELTEENYFQKKIYSSNEFKDKPICFSVASGYVVVIQTKDRTLEHHHHHH”, the “soluble on expression in E. coli” value is recorded as “soluble”.

As to “MTKYIFVTGGVVSSLGKGITAASLGRLLKNRGLNVTIQKFDPYINVDPGTMSPYQHGEVFVTDDGAETDLDLGHYERFIDINLNKYSNVTTGKIYSAVIRKERRGDYLGGTVQVIPHITNEIKERVFRAGRETNADVVITEIGGTVGDIESLPFLEAIRQIKSDVGRENVMYIHCTLVPYIKAAGEMKTKPTQHSVKELRSLGIQPNVIVVRTEMPMPQEMKEKIALFCDIDPKAVIEARDADTLYAVPLMLQEQKLDQIVCEHLRLNCREADMTEWKALVEKVRNLSKTTKIALVGKYVELPDAYISVVEALRHAGYAFDTDIDIQWINAEHVTRDNVADLLKDADGILVPGGFGDRGVEGKIEAIRYAREQRVPFLGICLGMQLASIEFARHVVGLSGAHSSEFDPNTPHPIIDLLPEQKDVEDLGGTLRLGLYPCKLQEGTLAYAAYGDEVIYERHRHRYEFNNQYRSIMEEHGFVFSGTSPDGRLVEVIELKDHPWFVAAQFHPEFTSRPTRPQPLFREFVRASLKE”, the “soluble on expression in E. coli” value is reported as “not soluble”.

As for “MTLDVPVNQGHVPPGSVACCLVGVTAVADGIAGHSLSNFGALPPEINSGRMYSGPGSGPLMAAAAAWDGLAAELSSAATGYGAAISELTNMRWWSGPASDSMVAAVLPFVGWLSTTATLAEQAAMQARAAAAAFEAAFAMTVPPPAIAANRTLLMTLVDTNWFGQNTPAIATTESQYAEMWAQDAAAMYGYASAAAPATVLTPFAPPPQTTNATGLVGHATAVAALRGQHSWAAAIPWSDIQKYWMMFLGALATAEGFIYDSGGLTLNALQFVGGMLWSTALAEAGAAEAAAGAGGAAGWSAWSQLGAGPVAASATLAAKIGPMSVPPGWSAPPATPQAQTVARSIPGIRSAAEAAETSVLLRGAPTPGRSRAAHMGRRYGRRLTVMADRPNVG”, the “soluble on expression in E. coli” value was “not soluble”.

“MTLHEVPTILHRCGDCPIRHRAVCARCDSEELATLEQIKYYRSYQAGQTVIWSGDKMDFVASVVTGIATLTQTMEDGRRQMVGLLLPSDFVGRPGRQTVAYDVTATTDLLMCCFRRKPFEEMMQKTPHVGQRLLEMTLDELDAAREWMLLLGRKTAREKIASLLAIIARRDAALKLRESNGPMTFDLPLTREEMADYLGLTLETVSRQVSALKRDGVIALEGKRHVIVTDFARLLEEAGDDSDGGLPV”: the “soluble on expression in E. coli” value is listed as “not soluble”.

As to “MTLKELLVGFGTQVRSIWMIGLHAFAKRETRMYPEEPVYLPPRYRGRIVLTRDPDGEERCVACNLCAVACPVGCISLQKAETKDGRWYPEFFRINFSRCIFCGLCEEACPTTAIQLTPDFELGEYKRQDLVYEKEDLLISGPGKYPEYNFYRMAGMAIDGKDKGEAENEAKPIDVKSLLP”, the “soluble on expression in E. coli” value is “not soluble”.

As for “MTLLGIKLKQTQQLNQRLQQSLRVLQMSGIELEREVENWLSDNPLLERKDTDEFSDAEFSHYTAPARQIGGDEGEDMLSNIAGEQDFKQYLHAQVCEHPLSDQEAACVHILIDFLDEQGYLTDSIEDILDHTPLEWMLDEAMLQHALTALKKFDPAGVAAADLNESLILQIERLGECAAKPAALHIVRNALDSIDGNRSQTLARIKKHLPQTDSGTLEAALDLIASLNPFPAAGFASSTPTPYSDEALANLLAFRGMEVSRRTIAKYRESFEIPAAHKRKTAE”, the “soluble on expression in E. coli” value was “not soluble”.

For the sequence “MTLPDSKKDQTARHVAILQESYRHYTGRYLFDPKLGASEAIVWLEQAPFALVSHGTQPDPIFNYGNQTALQLFGMTWDEFTRMPSRLSAEPVDRAERTRLLDHVSRDGYIDDYTGVRIAADGRRFLIRHATVWNLLDESGRFYGQAAMIPEWEVLQPVFTAD”, the “soluble on expression in E. coli” value was “not soluble”.

For “MTLPFKNGRGTMKINGVTIQMLPAASGDCIYLEFPDSDFRMLIDGGYAKTYQKYLKKFLLKLAAEGKRLNLIVVTHIDDDHISGIRALLKENGDSRNPKIIEIDEIWFNSLNQCITSRNAEQGMSFAVKIILKSMCSTDIDFECEYKKQNISYTNGKNLAELIQAGGYRWNASVVNNLVSKGQIVQFGDLKITILNPGIETLTKMGKKWLYHLKQINSNNIEITRDPLFDAAFEGFLLNNEKNIEFKQENISYSSEDLDWLDKYAEYKDIEMDSKITNCSSIAILIDYKDIKMLFPGDSPIQLFENELPKILDVIKLPHHGSAKNISLEFIKNTKVKYYLLSTDGKRYIDHPGKAVIANIIKNTGNNTELIKNYEIKFLKGLGKLDAED”, the “soluble on expression in E. coli” value is listed as “not soluble”.

On to “MTLPLNPAMAATFPPPVMEARRWIQGLSFPADRPLLNLSQAAPVEPPPAELRAALAEAALHDPQAHLYGPVLGLPALRAEIAAQWSAAYGGRIEPAQVAITQGCNQAFCAIMATLAGAGDEVILPTPWYFNHKMWLDMQGVMAVPLPTGPCLLPDAEEAAALVGPRTRAIVLVSPNNPGGVEYPAATLEAFRDLARARGLALIVDETYRDFDSRTGAPHALFADPDWDGVLVHLYSFSKAYRLTGHRVGAVVASAARLAQIEKFLDTVAICPSQLGQIGALWGIRNLAQWVAGERAEILARRTAMVGGFSALDGWTLLGCGAYFAYVEHPFDTPSDRLAPRLVQEAGVLLLPGTMFQPEGSEAGARQFRMAFANVDQAGIAELFSRLAQVTD”, for which the “soluble on expression in E. coli” value is listed as “not soluble”.

“MTLPPTSIADRIARAQPAFSRTQHRMAEYVLAHQFRVATMTIDEFAVAVGVSVATANRFARVLELPGYPQFRAELARGFESALEPVEKLRIELAHSASAAQVFAATLQEDIHNAQMTLQALDAGACERAVEAILNAERVFIIGFGTSGFLAGLLQRGLCMHLHAVESLAGPGGVSHAARQMSRMTSRDLVIALAFPRYLADTVTLANAAKLAGVPVLVLTDKPTSPLAPCATVALYAHMSRQLSSNAETAALGLIEALSAAVAHRAKNSIAAAAGVAQSVMPWLIHGEAGAGKR”: the “soluble on expression in E. coli” value is given as “not soluble”.

With “MTLSSKTTKKNTSQHKHPRYVDCDNCSMRAICQPIGADNQAIDLTSNYLTRRVEVSTEQSSSLPLNQSAGVALFEQASPLTAIFAVCSGTFKLCQKNDDGLDRIVGFRFPGELIGEDALFLEVYNYSAVALGDNSVCEVYVDSLSACSQLAPELQQNLIQLLTKQSYEQQRNAHAITGKKSADCLLAAFLLNICQRNAKHSGNETEIELTISRQDIASFLGMRRETLSRLLSKFQHEQLISLNGKQLSLLSLNHLKQLSNQ”, the “soluble on expression in E. coli” value is listed as “not soluble”.
